Laboratory results as given in the RNAGym collection of RNA variant scans (doi:10.1021/acssynbio.7b00057).

B1: Pistol ribozyme (parent)
chain: GGGUCGUUGUUCCAUAAUCGCGUGGAUAUGGCACGCAAGUUUCUACCGGGCACCGUAAAUGUCCGACUGGAGCCGUUCGGGCGGCUAUAAACAGACCUCAGGCCCGAAGCGUGGCGGCACCUGCCGCCGGUGGUAAAAAAGAUCGGAAGAGCACACGUCU

Variants of: B1
Test: aptazyme ON/OFF ratio, guanine; higher = stronger switching; co-transcriptional cleavage with and without guanine

Variant | aptazyme ON/OFF ratio
U7A G9C U10C U11A C12G C13G | 1.16
U7A G9C U10C U11A C12G C13A | 1.16
U7A G9U U10C U11C C12A C13A | 1.03
U7A G9U U10C U11C C12A C13U | 1.07
U7A G9U U10C U11C C12A C13G | 1.06
U7A G9C U10G U11C C12U C13G | 1.07
U7A G9C U10G U11C C12U C13U | 1.09
U7A G9C U10G U11C C12U C13A | 1.05
U7A G9C U11C C12A C13U | 1.08
U7A G9C U11C C12A C13G | 1.05
U7A G9C U11C C12A C13A | 1.06
U7A G9U U10A U11A C12U | 1.28
U7A G9U U10A U11A C12A | 1.43
U7A G9U U10A U11A C12G | 1.26
U7A G9C U11G C12U | 1.57
U7A G9C U11G C12G | 1.36
U7A G9C U11G C12A | 1.19
U7A G9C U10G U11A C12U C13G | 1.07
U7A G9C U10G U11A C12U C13A | 1.06
U7A G9C U10G U11A C12U C13U | 1.05
U7A G9C U10G C13G | 1.14

Variant | aptazyme ON/OFF ratio
U7A G9C U10G C13U | 1.33
U7A G9C U10G C13A | 1.15
U7A G9U U10C U11C C12U | 1.03
U7A G9U U10C U11C C12A | 1.09
U7A G9U U10C U11C C12G | 1.05
U7A G9C U11A C12G | 1.08
U7A G9C U11A C12A | 1.07
U7A G9C U11A C12U | 1.09
U7A G9U U10A U11G C12U | 1.39
U7A G9U U10A U11G C12G | 1.18
U7A G9U U10A U11G C12A | 1.07
U7A G9C U10C U11G C12U C13U | 1.06
U7A G9C U10C U11G C12U C13G | 1.04
U7A G9C U10C U11G C12U C13A | 1.04
U7A G9C U10C U11C C12U C13A | 1.05
U7A G9C U10C U11C C12U C13U | 0.994
U7A G9C U10C U11C C12U C13G | 1.04
U7A G9U U10G C12A C13G | 1.13
U7A G9U U10G C12A C13U | 1.3
U7A G9U U10G C12A C13A | 1.16
U7A G9U U10C U11G C13U | 1.2

Variant | aptazyme ON/OFF ratio
U7A G9U U10C U11G C13G | 1.09
U7A G9U U10C U11G C13A | 1.13
U7A G9C U11C C13U | 1.02
U7A G9C U11C C13A | 1.04
U7A G9C U11C C13G | 1.04
U7A G9C U11C C12U C13A | 1.04
U7A G9C U11C C12U C13U | 1.16
U7A G9C U11C C12U C13G | 1.12
U7A G9U U10C U11G C12A C13G | 1.2
U7A G9U U10C U11G C12A C13U | 1.11
U7A G9U U10C U11G C12A C13A | 1.05
U7A G9C U10G U11C C12A C13G | 1.05
U7A G9C U10G U11C C12A C13U | 1.06
U7A G9C U10G U11C C12A C13A | 1.05
U7A G9C U10G U11C C12G | 1.08
U7A G9C U10G U11C C12A | 1.08
U7A G9C U10G U11C C12U | 1.04
U7A G9U U10C U11A C13A | 1.14
U7A G9U U10C U11A C13G | 1.1
U7A G9U U10C U11A C13U | 1.1
U7A G9C U10G C12G C13G | 1.1

Variant | aptazyme ON/OFF ratio
U7A G9C U10G C12G C13U | 1.1
U7A G9C U10G C12G C13A | 1.07
U7A G9U C12G C13A | 1.2
U7A G9U C12G C13U | 1.3
U7A G9U C12G C13G | 1.3
U7A G9U U10C U11G C12U C13U | 1.27
U7A G9U U10C U11G C12U C13G | 1.12
U7A G9U U10C U11G C12U C13A | 1.15
U7A G9C U10C U11C C12A | 1.01
U7A G9C U10C U11C C12U | 1.04
U7A G9C U10C U11C C12G | 1.03
U7A G9C U10G C12A C13U | 1.09
U7A G9C U10G C12A C13G | 1.09
U7A G9C U10G C12A C13A | 1.08
U7A G9U U10A C12G C13A | 1.25
U7A G9U U10A C12G C13U | 1.11
U7A G9U U10A C12G C13G | 1.26
U7A G9C U10G U11G C12A C13A | 1.11
U7A G9C U10G U11G C12A C13U | 1.08
U7A G9C U10G U11G C12A C13G | 1.06
